Sequences and labels used below:
B1: PCDHGA10 (parent)
chain: FGIEIEVTDINDNAPKFQAENLDV
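Also: lentivirally expressed fusions sorted by FACS into six bins by GFP to DsRed ratio, PSI derived from sequencing read proportions per bin multiplied by bin number.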

The data set covers variants of B1. Nature of the data set: protein stability index of a GFP-peptide fusion (GPS, HEK-293T) (PSI 1-6); higher = more stable. The note with it: c terminus: a fixed tail appended.
Consider FGIEIEVPDINDNAPKFQAENLDV, for which the protein stability index stood at 3.75.

Consider FGIEIEVRDINDNAPKFQAENLDV, for which the protein stability index amounted to 2.32.

As for FGIEIEVWDINDNAPKFQAENLDV, the protein stability index came out at 2.27.

Consider FGIEIEVVDINDNAPKFQAENLDV, for which the protein stability index was found to be 2.08.

As for FGIEIEVNDINDNAPKFQAENLDV, the protein stability index is 3.81.

Turning to FGIEIEVIDINDNAPKFQAENLDV, the protein stability index is 1.76.

Consider FGIEIEVLDINDNAPKFQAENLDV, for which the protein stability index was 1.89.

With FGIEIEVMDINDNAPKFQAENLDV, the protein stability index turned out to be 2.19.

Regarding FGIEIEVDDINDNAPKFQAENLDV, the protein stability index is 3.79.

As to FGIEIEVCDINDNAPKFQAENLDV, the protein stability index was determined as 2.48.

As to FGIEIEVFDINDNAPKFQAENLDV, the protein stability index was determined as 1.68.

Consider FGIEIEVQDINDNAPKFQAENLDV, for which the protein stability index is 2.78.

Take FGIEIEVSDINDNAPKFQAENLDV: the protein stability index worked out at 2.77.

Consider FGIEIEVYDINDNAPKFQAENLDV, for which the protein stability index worked out at 1.17.

Turning to FGIEIEVKDINDNAPKFQAENLDV, the protein stability index amounted to 3.33.

On to FGIEIEVHDINDNAPKFQAENLDV, for which the protein stability index stood at 2.78.

For FGIEIEVGDINDNAPKFQAENLDV, the protein stability index amounted to 3.27.

Turning to FGIEIEVEDINDNAPKFQAENLDV, the protein stability index is 3.32.

For the variant FGIEIEVADINDNAPKFQAENLDV, the protein stability index came out at 2.88.

For the variant FGIEIEVTDWNDNAPKFQAENLDV, the protein stability index is 2.03.

Regarding FGIEIEVTDANDNAPKFQAENLDV, the protein stability index stood at 3.61.

Consider FGIEIEVTDYNDNAPKFQAENLDV, for which the protein stability index amounted to 2.81.

In the case of FGIEIEVTDVNDNAPKFQAENLDV, the protein stability index is 3.24.

With FGIEIEVTDGNDNAPKFQAENLDV, the protein stability index came out at 3.67.

As to FGIEIEVTDNNDNAPKFQAENLDV, the protein stability index stood at 4.14.

As for FGIEIEVTDTNDNAPKFQAENLDV, the protein stability index was 3.28.

For the variant FGIEIEVTDRNDNAPKFQAENLDV, the protein stability index turned out to be 3.73.

As to FGIEIEVTDENDNAPKFQAENLDV, the protein stability index came out at 4.23.

For the variant FGIEIEVTDMNDNAPKFQAENLDV, the protein stability index is 3.28.

For FGIEIEVTDDNDNAPKFQAENLDV, the protein stability index is 4.78.

With FGIEIEVTDQNDNAPKFQAENLDV, the protein stability index is 4.05.

Take FGIEIEVTDLNDNAPKFQAENLDV: the protein stability index was 2.63.

Take FGIEIEVTDKNDNAPKFQAENLDV: the protein stability index was determined as 4.61.

For FGIEIEVTDCNDNAPKFQAENLDV, the protein stability index is 3.4.

Regarding FGIEIEVTDSNDNAPKFQAENLDV, the protein stability index was 3.91.

As for FGIEIEVTDHNDNAPKFQAENLDV, the protein stability index stood at 4.04.

As for FGIEIEVTDFNDNAPKFQAENLDV, the protein stability index was determined as 2.4.

Take FGIEIEVTDPNDNAPKFQAENLDV: the protein stability index came to 3.83.

On to YGIEIEVTDINDNAPKFQAENLDV, for which the protein stability index turned out to be 3.52.

Take WGIEIEVTDINDNAPKFQAENLDV: the protein stability index stood at 2.54.

As to VGIEIEVTDINDNAPKFQAENLDV, the protein stability index was found to be 2.93.

As for QGIEIEVTDINDNAPKFQAENLDV, the protein stability index was 4.58.

Regarding MGIEIEVTDINDNAPKFQAENLDV, the protein stability index came to 3.52.

Take NGIEIEVTDINDNAPKFQAENLDV: the protein stability index was 4.69.

With PGIEIEVTDINDNAPKFQAENLDV, the protein stability index was 5.08.

In the case of SGIEIEVTDINDNAPKFQAENLDV, the protein stability index came out at 4.75.

In the case of TGIEIEVTDINDNAPKFQAENLDV, the protein stability index was 4.93.

In the case of RGIEIEVTDINDNAPKFQAENLDV, the protein stability index was 4.17.

With FGIEIKVTDINDNAPKFQAENLDV, the protein stability index amounted to 2.77.

Consider FGIEIVVTDINDNAPKFQAENLDV, for which the protein stability index was 2.04.

As to FGIEIIVTDINDNAPKFQAENLDV, the protein stability index stood at 2.05.

Take FGIEIGVTDINDNAPKFQAENLDV: the protein stability index came to 3.56.

Turning to FGIEIPVTDINDNAPKFQAENLDV, the protein stability index was 4.08.

As for FGIEIHVTDINDNAPKFQAENLDV, the protein stability index was 2.19.

As for FGIEIDVTDINDNAPKFQAENLDV, the protein stability index was 3.62.

As to FGIEIYVTDINDNAPKFQAENLDV, the protein stability index came out at 2.23.

With FGIEILVTDINDNAPKFQAENLDV, the protein stability index came to 1.86.

As to FGIEINVTDINDNAPKFQAENLDV, the protein stability index stood at 3.02.

Turning to FGIEICVTDINDNAPKFQAENLDV, the protein stability index was determined as 1.58.

On to FGIEISVTDINDNAPKFQAENLDV, for which the protein stability index is 2.69.

With FGIEIFVTDINDNAPKFQAENLDV, the protein stability index was 2.43.

For the variant FGIEIMVTDINDNAPKFQAENLDV, the protein stability index is 1.41.

FGIEIWVTDINDNAPKFQAENLDV: the protein stability index stood at 2.9.

For FGIEIAVTDINDNAPKFQAENLDV, the protein stability index amounted to 3.25.

As to FGIEIQVTDINDNAPKFQAENLDV, the protein stability index is 2.39.

With FGIEIRVTDINDNAPKFQAENLDV, the protein stability index came out at 1.7.

In the case of FGIEITVTDINDNAPKFQAENLDV, the protein stability index is 1.98.

In the case of FGIEIEMTDINDNAPKFQAENLDV, the protein stability index is 3.18.

On to FGIEIERTDINDNAPKFQAENLDV, for which the protein stability index turned out to be 4.14.

As for FGIEIESTDINDNAPKFQAENLDV, the protein stability index is 4.63.

Turning to FGIEIEQTDINDNAPKFQAENLDV, the protein stability index was determined as 4.8.

Turning to FGIEIEDTDINDNAPKFQAENLDV, the protein stability index was 5.46.

In the case of FGIEIEITDINDNAPKFQAENLDV, the protein stability index is 2.29.

On to FGIEIEATDINDNAPKFQAENLDV, for which the protein stability index worked out at 4.33.

Take FGIEIECTDINDNAPKFQAENLDV: the protein stability index was 3.75.

Turning to FGIEIEFTDINDNAPKFQAENLDV, the protein stability index is 2.25.

As for FGIEIEYTDINDNAPKFQAENLDV, the protein stability index turned out to be 2.93.

With FGIEIEKTDINDNAPKFQAENLDV, the protein stability index was determined as 4.21.

For FGIEIELTDINDNAPKFQAENLDV, the protein stability index came to 2.45.

As to FGIEIENTDINDNAPKFQAENLDV, the protein stability index was determined as 4.46.

As to FGIEIEGTDINDNAPKFQAENLDV, the protein stability index stood at 4.3.

As for FGIEIEPTDINDNAPKFQAENLDV, the protein stability index was found to be 4.72.

Turning to FGIEIEWTDINDNAPKFQAENLDV, the protein stability index stood at 1.78.

FGIEIEHTDINDNAPKFQAENLDV: the protein stability index amounted to 4.74.

For FGIEIETTDINDNAPKFQAENLDV, the protein stability index came to 4.45.

With FGIEIEETDINDNAPKFQAENLDV, the protein stability index was determined as 4.74.

Regarding FGIEIEVTVINDNAPKFQAENLDV, the protein stability index is 2.58.

Regarding FGIEIEVTKINDNAPKFQAENLDV, the protein stability index amounted to 2.45.

FGIEIEVTTINDNAPKFQAENLDV: the protein stability index came out at 1.96.

On to FGIEIEVTIINDNAPKFQAENLDV, for which the protein stability index was found to be 1.32.

With FGIEIEVTEINDNAPKFQAENLDV, the protein stability index worked out at 2.69.

As for FGIEIEVTPINDNAPKFQAENLDV, the protein stability index came to 2.53.

Take FGIEIEVTRINDNAPKFQAENLDV: the protein stability index turned out to be 2.04.

FGIEIEVTSINDNAPKFQAENLDV: the protein stability index was 1.85.

These data come from the supplement of paper PMC10567573.
